Test results from the Human Domainome abundance scans (Beltran et al. 2025).

B1: Transcriptional regulator ERG, residues 117 to 197; numbered along this chain, P11308 (parent)
chain: NMTTNERRVIVPADPTLWSTDHVRQWLEWAVKEYGLPDVNILLFQNIDGKELCKMTKDDFQRLTPSYNADILLSHLHYLRE

Variants of: B1
Assay: abundance fitness (aPCA) (normalised: wild type 0, dead -1); higher = more abundant; growth selection in yeast, the domain comes from the species named
Conditions: Homo sapiens

Abundance fitness of substitutions, site by site:
V39: Q -0.219, A -0.169, I 0.007, F 0.04, R -0.278, C 0.005, K -0.242, N -0.144, M -0.045, D -0.241, T -0.002, S -0.116, W -0.334, L 0.066, P -0.295, Y -0.252
N46: P -0.244, C -0.066, T -0.035, D 0.023, Q -0.144, V -0.617, R -0.106, K -0.104, M -0.255, L -0.251, F -0.133, Y -0.082, S 0.012, W -0.201, I -0.379, H -0.063, E 0.039
A30: V -0.095, N -0.217, T -0.051, Q -0.018, Y -0.655, P -0.956, W -0.324, L -0.103, K -0.105, S -0.103
P37: I 0.106, K 0.054, F -0.143, L 0.001, Q -0.044, A 0.022, M 0.001, D -0.027, H 0.016, E 0.018, T 0.072, N 0.072, R 0.014, S 0.08, V -0.024, Y -0.018, G -0.026, W -0.123, C 0.017
D48: T 0.033, W -0.969, S -0.052, M -0.412, H -0.282, Y -1, Q -0.227, F -0.399, C -0.075, G -0.114, E -0.076, K -0.123, P -0.295, R -0.183, N 0.022, L -0.521, V -0.378
K50: H -0.098, P -0.011, A 0.044, G -0.089, E 0.035, Q -0.022, L -0.054, I -0.1, D -0.004, C 0.015, N 0.032
G49: Y -1.14, R -0.8, L -0.833, S -0.737, W -1.04, N -1.08, Q -0.836, M -0.678, F -0.816, A -0.837, D -0.874, K -0.945, V -0.895, I -1.4, T -1.11
I41: W -0.159, R -0.187, H -0.075, L -0.027, G -0.097, Q -0.112, V -0.021, F 0, M -0.061, N -0.136, C -0.034, T -0.034, Y -0.057, E -0.053, D -0.157, S -0.128, K 0.012, A -0.145, P -0.024
G35: W -0.273, L -0.069, V -0.05, F -0.276, T 0.061, P -0.302, K 0.044, A 0.03, Q 0.05, M -0.047, E 0.009, R -0.027, S 0.012, D 0.063, I -0.021, C -0.057, H 0.088
L42: T -0.042, S 0.012, K -0.008, V -0.027, Y -0.018, F -0.154, G 0.033, A 0.014, W -0.024, E -0.001, D -0.068, N 0.078, C -0.051, I -0.112, R 0.056
N40: L -0.179, Y -0.284, Q -0.165, T -0.213, M -0.413, C -0.172, G -0.4, S -0.236, I -0.317, D 0.072, P -0.153, R -0.255, F -0.419, H -0.292, A -0.201
V31: W -0.439, C -0.111, H -0.14, M -0.003, N -0.218, D -0.498, G -0.164, P -0.649, Q -0.086, K 0.06, E -0.154, S -0.015, T 0.001, R -0.054, I 0.02
L36: E -0.889, R -0.81, I -0.066, Y -0.375, C 0.014, P -1.08, W -0.253, G -0.563, F -0.038, S -0.829, N -0.75, V -0.225, T -0.357, Q -0.67, M -0.038, A -0.476, D -0.426
Y34: P -0.523, G -0.254, T -0.449, R -0.211, D -0.326, W -0.105, V -0.341, C -0.186, K -0.056, F -0.021, H -0.06, E -0.2, S -0.278, Q -0.28, I -0.171
K32: Y -0.198, W -0.158, Q -0.109, H -0.037, V -0.036, G -0.103, F -0.166, A -0.103, R -0.052, D -0.028, T -0.044, P -0.468, N 0.05, I 0.005, M 0.003, S -0.111, E 0.053
E33: I -0.193, P -0.929, C -0.307, N -0.059, T -0.15, W -0.169, M -0.105, K 0.029, G -0.429, F -0.034, D 0.002, H -0.108, S -0.035, Y -0.151
I47: V 0.006, K -0.255, D -0.789, W -0.653, A -0.521, T -0.242, H -0.251, L -0.046, F -0.176, Q -1.08, N -0.492, C -0.163, S -0.751, R -0.609, E -0.712, P -0.99, Y -0.022
F44: T -0.297, W -0.072, P -0.435, L -0.217, I -0.497, C -0.215, R -0.278, Q -0.181, N -0.067, S -0.275, G -0.382, Y -0.081, A -0.195, V -0.523, D -0.067, H -0.407
Q45: W -0.292, V -0.154, Y -0.113, F -0.274, R -0.055, C -0.234, D -0.096, S -0.005, P -0.407, K 0.042, T -0.132, G -0.042, I -0.235, M -0.083, E 0.045, L -0.241, H 0.07
D38: C -0.289, Y -0.293, G -0.004, N -0.011, S -0.054, K -0.091, Q -0.067, H -0.049, P 0.046, M -0.317, T -0.052, V -0.755, R -0.146, E -0.094, A -0.217, W -0.398, L -0.756, F -0.541
L43: R -0.029, M -0.063, Y -0.082, S 0.041, T 0.07, V -0.083, H 0.027, W -0.079, C 0.08, D -0.006, G -0.019, K 0.071, P -0.128, I -0.217, Q 0.047, F -0.105, N -0.033
